{"source": "paper PMC4393884", "about": "(Structure (London, England : 1993), 2014)", "binders": {"B1": {"name": "full length progesterone receptor isoform B (PR-B) (receptor, human, UniProt P06401 1-933, looked up)", "chain": "MTELKAKGPRAPHVAGGPPSPEVGSPLLCRPAAGPFPGSQTSDTLPEVSAIPISLDGLLFPRPCQGQDPSDEKTQDQQSLSDVEGAYSRAEATRGAGGSSSSPPEKDSGLLDSVLDTLLAPSGPGQSQPSPPACEVTSSWCLFGPELPEDPPAAPATQRVLSPLMSRSGCKVGDSSGTAAAHKVLPRGLSPARQLLLPASESPHWSGAPVKPSPQAAAVEVEEEDGSESEESAGPLLKGKPRALGGAAAGGGAAAVPPGAAAGGVALVPKEDSRFSAPRVALVEQDAPMAPGRSPLATTVMDFIHVPILPLNHALLAARTRQLLEDESYDGGAGAASAFAPPRSSPCASSTPVAVGDFPDCAYPPDAEPKDDAYPLYSDFQPPALKIKEEEEGAEASARSPRSYLVAGANPAAFPDFPLGPPPPLPPRATPSRPGEAAVTAAPASASVSSASSSGSTLECILYKAEGAPPQQGPFAPPPCKAPGASGCLLPRDGLPSTSASAAAAGAAPALYPALGLNGLPQLGYQAAVLKEGLPQVYPPYLNYLRPDSEASQSPQYSFESLPQKICLICGDEASGCHYGVLTCGSCKVFFKRAMEGQHNYLCAGRNDCIVDKIRRKNCPACRLRKCCQAGMVLGGRKFKKFNKVRVVRALDAVALPQPVGVPNESQALSQRFTFSPGQDIQLIPPLINLLMSIEPDVIYAGHDNTKPDTSSSLLTSLNQLGERQLLSVVKWSKSLPGFRNLHIDDQITLIQYSWMSLMVFGLGWRSYKHVSGQMLYFAPDLILNEQRMKESSFYSLCLTMWQIPQEFVKLQVSQEEFLCMKVLLLLNTIPLEGLRSQTQFEEMRSSYIRELIKAIGLRQKGVVSSSQRFYQLTKLLDNLHDLVKQLHLYCLNTFIQSRALSVEFPEMMSEVIAAQLPKILAGMVKPLLFHKK"}, "B2": {"name": "full length progesterone receptor isoform A (PR-A) (receptor, human, UniProt P06401-2 1-769, looked up)", "chain": "MSRSGCKVGDSSGTAAAHKVLPRGLSPARQLLLPASESPHWSGAPVKPSPQAAAVEVEEEDGSESEESAGPLLKGKPRALGGAAAGGGAAAVPPGAAAGGVALVPKEDSRFSAPRVALVEQDAPMAPGRSPLATTVMDFIHVPILPLNHALLAARTRQLLEDESYDGGAGAASAFAPPRSSPCASSTPVAVGDFPDCAYPPDAEPKDDAYPLYSDFQPPALKIKEEEEGAEASARSPRSYLVAGANPAAFPDFPLGPPPPLPPRATPSRPGEAAVTAAPASASVSSASSSGSTLECILYKAEGAPPQQGPFAPPPCKAPGASGCLLPRDGLPSTSASAAAAGAAPALYPALGLNGLPQLGYQAAVLKEGLPQVYPPYLNYLRPDSEASQSPQYSFESLPQKICLICGDEASGCHYGVLTCGSCKVFFKRAMEGQHNYLCAGRNDCIVDKIRRKNCPACRLRKCCQAGMVLGGRKFKKFNKVRVVRALDAVALPQPVGVPNESQALSQRFTFSPGQDIQLIPPLINLLMSIEPDVIYAGHDNTKPDTSSSLLTSLNQLGERQLLSVVKWSKSLPGFRNLHIDDQITLIQYSWMSLMVFGLGWRSYKHVSGQMLYFAPDLILNEQRMKESSFYSLCLTMWQIPQEFVKLQVSQEEFLCMKVLLLLNTIPLEGLRSQTQFEEMRSSYIRELIKAIGLRQKGVVSSSQRFYQLTKLLDNLHDLVKQLHLYCLNTFIQSRALSVEFPEMMSEVIAAQLPKILAGMVKPLLFHKK"}, "B3": {"name": "C-terminal core DNA binding domain (aa 159-339) of human TATA-binding protein (TBPc) (domain or fragment, UniProt P20226 159-339, looked up)", "chain": "SGIVPQLQNIVSTVNLGCKLDLKTIALRARNAEYNPKRFAAVIMRIREPRTTALIFSSGKMVCTGAKSEEQSRLAARKYARVVQKLGFPAKFLDFKIQNMVGSCDVKFPIRLEGLVLTHQQFSSYEPELFPGLIYRMIKPRIVLLIFVSGKVVLTGAKVRAEIYEAFENIYPILKGFRKTT"}}, "key": {"SEC": {"molecular_target": "the molecule itself", "assay": "SEC"}, "[1]": {"molecular_target": "B1", "assay": "HDX-MS"}, "[2]": {"molecular_target": "B2", "assay": "HDX-MS"}, "truncated PR-B (233-933)": {"molecular_target": "T1, truncated PR-B (233-933) (human, UniProt P06401 233-933)", "T1 sequence (looked up)": "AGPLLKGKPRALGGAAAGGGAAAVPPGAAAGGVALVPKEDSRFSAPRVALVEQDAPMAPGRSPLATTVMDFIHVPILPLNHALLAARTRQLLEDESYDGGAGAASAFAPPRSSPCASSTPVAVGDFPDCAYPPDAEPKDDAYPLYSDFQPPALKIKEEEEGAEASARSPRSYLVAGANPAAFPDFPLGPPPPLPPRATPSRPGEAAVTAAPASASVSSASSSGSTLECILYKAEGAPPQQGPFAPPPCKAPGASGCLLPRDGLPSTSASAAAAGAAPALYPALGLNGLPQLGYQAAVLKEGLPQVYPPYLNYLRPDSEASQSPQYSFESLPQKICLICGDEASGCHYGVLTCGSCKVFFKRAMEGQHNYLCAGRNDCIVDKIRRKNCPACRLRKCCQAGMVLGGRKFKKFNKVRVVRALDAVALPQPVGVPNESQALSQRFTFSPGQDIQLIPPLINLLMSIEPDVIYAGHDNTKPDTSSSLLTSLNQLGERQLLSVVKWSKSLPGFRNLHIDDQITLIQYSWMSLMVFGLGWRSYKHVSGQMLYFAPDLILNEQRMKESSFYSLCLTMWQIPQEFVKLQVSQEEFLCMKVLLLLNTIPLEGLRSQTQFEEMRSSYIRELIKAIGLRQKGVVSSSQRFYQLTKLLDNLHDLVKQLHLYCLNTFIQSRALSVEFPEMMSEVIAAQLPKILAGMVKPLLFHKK", "assay": "HDX-MS"}}, "data": [{"binder": "B1", "values": [{"measurement": "stoichiometry N", "setting": "SEC", "result": 2}]}, {"binder": "B2", "values": [{"measurement": "stoichiometry N", "setting": "SEC", "result": 2}]}, {"binder": "B3", "values": [{"measurement": "binding result", "setting": "[1]", "result": "binds"}, {"measurement": "binding result", "setting": "[2]", "result": "binds"}, {"measurement": "binding result", "setting": "truncated PR-B (233-933)", "result": "binds"}]}]}
